According to patent publication US20070065878A1:
Several values for one entry are separate records, joined by “and”; a condition that tells them apart may be missing. Equal values may be shown once.

How the values were obtained:
[1] = system: T1, PVAMR (MMP substrate, 5X library)
T1 sequence: PVAMR

[2] = system: T2, VPVVM (MMP substrate, 5X library)
T2 sequence: VPVVM

[3] = system: T3, VPVNM (MMP substrate, 5X library)
T3 sequence: VPVNM

[4] = system: T4, TPLAL (MMP substrate, 5X library)
T4 sequence: TPLAL

[5] = system: T5, PVPMV (MMP substrate, 5X library)
T5 sequence: PVPMV

[6] = system: T6, MPVVL (MMP substrate, 5X library)
T6 sequence: MPVVL

[7] = system: T7, PMAVI (MMP substrate, 5X library)
T7 sequence: PMAVI

[8] = system: T8, PMAVT (MMP substrate, 5X library)
T8 sequence: PMAVT

[9] = system: T9, MPLVM (MMP substrate, 5X library)
T9 sequence: MPLVM

[10] = system: T10, VPLNM (MMP substrate, 5X library)
T10 sequence: VPLNM

[11] = system: T11, VPMVV (MMP substrate, 5X library)
T11 sequence: VPMVV

[12] = system: T12, PVNVV (MMP substrate, 5X library)
T12 sequence: PVNVV

[13] = system: T13, EP 4.6
T13 sequence: SSGERMMGG

[14] = system: T14, EP 4.8
T14 sequence: VRDYRMGGQ

[15] = system: T15, EP 4.10
T15 sequence: GSSERAAAG

[16] = system: T16, EP 4.2
T16 sequence: MHGERMGGS

[17] = system: T17, EP 4.9
T17 sequence: SVLDRWMGG

[18] = system: T18, EP 4.1
T18 sequence: SVDYRFLGS

[19] = system: T19, CyPet-YPet substrate with recognition sequence SGDRMW (EP4.3)
T19 sequence: SGDRMWHHHHHH

[20] = system: T20, EP 3.6
T20 sequence: GSSDRARVW

[21] = system: T21, EP 4.4
T21 sequence: SEYDRQLGS

[22] = system: T22, EP 2.5
T22 sequence: MSGERMGGS

[23] = system: T23, EP 4.7
T23 sequence: GSDDRRAGG

[24] = system: T24, Dabcyl-SGDRMW(E-Edans)-amide
T24 sequence: SGDRMW

[25] = system: T25, EP 4.3
T25 sequence: SSGDRMWGG

[26] = system: T26, Canonical (enteropeptidase substrate)
T26 sequence: DDDDKGGQS

[27] = system: T27, EP 2.2
T27 sequence: AAVERWGGS

[28] = system: T28, negative control displaying the sequence GGQSGQ
T28 sequence: GGQSGQ

[29] = target: T29, Canonical (caspase-3 substrate)
T29 chain: QDEVDGGQS
For % Conversion in this document: test concentration or dose not given here.

matrix metalloprotease-1 showed a % Conversion (fraction (head says % Conversion)) [1] of 0.729, a % Conversion (fraction (head says % Conversion)) [2] of 0.366 and a % Conversion (fraction (head says % Conversion)) [3] of 0.76. The % Conversion (fraction (head says % Conversion)) [4] was 0.417, the % Conversion (fraction (head says % Conversion)) [5] was 0.496 and the % Conversion (fraction (head says % Conversion)) [6] was 0.428. The % Conversion (fraction (head says % Conversion)) [7] was 0.699, the % Conversion (fraction (head says % Conversion)) [8] was 0.504 and the % Conversion (fraction (head says % Conversion)) [9] was 0.659. The % Conversion (fraction (head says % Conversion)) [10] was 0.844 and 0.61, the % Conversion (fraction (head says % Conversion)) [11] was 0.814 and 0.443 and the % Conversion (fraction (head says % Conversion)) [12] was 0.789.

Work on “catalytic subunit light chain of enteropeptidase” yielded a Conversion (fraction converted) [13] of 0.93, a Conversion (fraction converted) [14] of 0.87 and a Conversion (fraction converted) [15] of 0.78. For the same molecule, the Conversion (fraction converted) [16] was 0.84, the Conversion (fraction converted) [17] was 0.72 and the Conversion (fraction converted) [18] was 0.84. The “cleavage rate of the CyPet-YPet fusion by fluorimetry, relative to DDDDK” value [19] was “cleaved at a rate 17-fold faster than DDDDK”, the Conversion (fraction converted) [20] was 0.86 and the Conversion (fraction converted) [21] was 0.71. For the same molecule, the Conversion (fraction converted) [22] was 0.84, the Conversion (fraction converted) [23] was 0.91 and the kcat/KM of the synthetic fluorogenic peptide, relative to DDDDK [24] was greater than 5 fold. The Conversion (fraction converted) [25] was 0.97, the Conversion (fraction converted) [26] was 0.15 and the decrease in mean fluorescence intensity (SA-PE label) after incubation with enteropeptidase [26] was 20 fold. The Conversion (fraction converted) [27] was 0.69 and the “change in fluorescence (SA-PE label) after incubation with enteropeptidase” value [28] was “exhibited minimal change in fluorescence”.

B1: caspase-3 (protein)
chain: MENTENSVDSKSIKNLEPKIIHGSESMDSGISLDNSYKMDYPEMGLCIIINNKNFHKSTGMTSRSGTDVDAANLRETFRNLKYEVRNKNDLTREEIVELMRDVSKEDHSKRSSFVCVLLSHGEEGIIFGTNGPVDLKKITNFFRGDRCRSLTGKPKLFIIQACRGTELDCGIETDSGVDDDMACHKIPVEADFLYAYSTAPGYYSWRNSKDGSWFIQSLCAMLKQYADKLEFMHILTRVNRKVATEFESFSFDATFHAKKQIPCIVSMLTKELYFYH
For B1, the Conversion (fraction converted) [29] was 0.95.
